Here are results for one molecule from patent publication US10434074B2, “Peptide and small molecule agonists of EPHA and uses thereof” (CASE WESTERN RESERVE UNIVERSITY, priority 2004, dated 2019).

In one assay the target is T1, EphA2 (Rattus norvegicus, UniProt D3ZBN3).
T1 construct: greatly elevated in MatLu and MatLyLu variants; endogenous in cells; host or cells: MatLyLu (Dunning R-3327 rat prostate cancer subline)
In words: EphA2 activation and ERK status in MatLyLu cells. Format: cell-based. The procedure:
FIGS. 1(A-D) illustrate (A) EphA2 is the primary EphA kinase expressed on human prostate cancer cells. Cell surface proteins were labeled with membrane impermeable biotin (Method). Top panel: Saturating amount of ephrin-A1-Fc (EA1-Fc) was used to precipitate most EphA kinases. Lower panel: EphA2 was first immunodepleted from cell lysates with an EphA2-specific antibody. Saturating amount of ephrin-A1-Fc was then added to the EphA2-depleted cell lysates to precipitate other members of EphA kinases. The precipitates were subject immunoblot with HRP-labeled avidin. (B) Expression of EphA2, but not other EphA kinases and ephrin-As, is elevated in cell lines derived from more malignant prostate cancer. Total cellular proteins were immunoblotted with the indicated antibodies. (C) Immunofluorescence staining of EphA2. Human prostate cancer cells grown on cover slip were stained with anti-EphA2 antibody. Texas-Red labeled secondary was used to visualize the bound primary antibody. […] To determine the ERK activation status, total cell lysates were analyzed by immunoblot using anti-phospho ERK (p-ERK) antibody. […]
Cells cultured in 6 well plates at 70-80% confluence were stimulated with 0.5 μg/ml Fc, 1 μg/ml epnrinA1-Fc or 20 ng/ml HGF/SF or their combinations as indicated. […] For quantitative analysis, band densities were measured using KODAK 1D imagine analysis software (Eastman Kodak Company).

Another assay has as its system GFP-PC-3 cells. In words: PC3 xenograft growth in nude mice. In kind it is in vivo. Details: s.c. tumor growth: dose or concentration left out as unconfirmed. From the text: Frozen sections were stained with biotinylated rabbit anti-human Fc, and HRP-conjugated streptoavidin.
Assay [1] concerns integrin-mediated cell adhesion. As to the kind of experiment: Integrin-mediated cell adhesion to fibronectin. Format: cell-based.
The next assay has as its target T2, EphA1 (Homo sapiens, UniProt P21709).
T2 construct: expressed in transfected cells; host or cells: DU145 cells, retroviral infection
T2 sequence (P21709 26-976): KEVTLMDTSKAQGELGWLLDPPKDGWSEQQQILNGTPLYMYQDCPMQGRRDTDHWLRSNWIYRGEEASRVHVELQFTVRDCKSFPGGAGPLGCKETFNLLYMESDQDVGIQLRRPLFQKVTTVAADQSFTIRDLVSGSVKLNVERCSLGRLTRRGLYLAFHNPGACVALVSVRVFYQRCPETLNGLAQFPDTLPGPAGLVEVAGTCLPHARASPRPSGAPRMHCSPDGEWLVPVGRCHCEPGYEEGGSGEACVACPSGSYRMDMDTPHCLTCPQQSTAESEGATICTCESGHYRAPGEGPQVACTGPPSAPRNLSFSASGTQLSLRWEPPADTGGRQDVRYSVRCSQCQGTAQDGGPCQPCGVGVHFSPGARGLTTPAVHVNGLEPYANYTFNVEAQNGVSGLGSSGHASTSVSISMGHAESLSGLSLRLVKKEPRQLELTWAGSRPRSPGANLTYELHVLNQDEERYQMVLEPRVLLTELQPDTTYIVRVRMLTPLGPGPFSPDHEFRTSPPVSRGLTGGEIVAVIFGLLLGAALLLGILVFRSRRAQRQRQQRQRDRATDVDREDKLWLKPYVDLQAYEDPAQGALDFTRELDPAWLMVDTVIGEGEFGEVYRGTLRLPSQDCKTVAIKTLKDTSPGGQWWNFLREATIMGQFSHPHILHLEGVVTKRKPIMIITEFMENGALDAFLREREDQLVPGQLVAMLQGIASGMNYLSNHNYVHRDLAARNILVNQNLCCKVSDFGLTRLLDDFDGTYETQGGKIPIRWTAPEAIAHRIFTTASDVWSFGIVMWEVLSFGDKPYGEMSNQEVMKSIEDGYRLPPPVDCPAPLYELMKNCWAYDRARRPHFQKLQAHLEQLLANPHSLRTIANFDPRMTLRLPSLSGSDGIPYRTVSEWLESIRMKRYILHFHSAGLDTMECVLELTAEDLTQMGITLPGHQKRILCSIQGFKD
In words: Proliferation of DU145 cells expressing EphA1. In kind it is cell-based. The note with it: 10% serum 7 days or 0.5% serum 18 days. On the procedure: FIGS. 49(A-B) illustrate expression of EphA1 in DU145 cells infected with vector control (control) and EphA1 expression retrovirus. FIG. 49B illustrates that about 2,000 cells were plated on 12-well plates in the regular culture medium (10% serum) and low serum medium (0.5%). Cell were cultured for 7 days (10% serum) or 18 days (0.5%). FIG. 49B illustrates that proliferation of prostatic epithelial cells expressing EphA1 and activated with Ephrin-A1 is inhibited.
DU145 human prostatic epithelial cells were infected with retrovirus expressing EphA1. FIG. 49A illustrates expression of EphA1 in DU145 cells infected with vector control (control) and EphA1 expression retrovirus. FIG. 49B illustrates that about 2,000 cells were plated on 12-well plates in the regular culture medium (10% serum) and low serum medium (0.5%). Cell were cultured for 7 days (10% serum) or 18 days (0.5%). FIG. 49B illustrates that proliferation of prostatic epithelial cells expressing EphA1 and activated with Ephrin-A1 is inhibited.

T1 sequence (D3ZBN3 1-977): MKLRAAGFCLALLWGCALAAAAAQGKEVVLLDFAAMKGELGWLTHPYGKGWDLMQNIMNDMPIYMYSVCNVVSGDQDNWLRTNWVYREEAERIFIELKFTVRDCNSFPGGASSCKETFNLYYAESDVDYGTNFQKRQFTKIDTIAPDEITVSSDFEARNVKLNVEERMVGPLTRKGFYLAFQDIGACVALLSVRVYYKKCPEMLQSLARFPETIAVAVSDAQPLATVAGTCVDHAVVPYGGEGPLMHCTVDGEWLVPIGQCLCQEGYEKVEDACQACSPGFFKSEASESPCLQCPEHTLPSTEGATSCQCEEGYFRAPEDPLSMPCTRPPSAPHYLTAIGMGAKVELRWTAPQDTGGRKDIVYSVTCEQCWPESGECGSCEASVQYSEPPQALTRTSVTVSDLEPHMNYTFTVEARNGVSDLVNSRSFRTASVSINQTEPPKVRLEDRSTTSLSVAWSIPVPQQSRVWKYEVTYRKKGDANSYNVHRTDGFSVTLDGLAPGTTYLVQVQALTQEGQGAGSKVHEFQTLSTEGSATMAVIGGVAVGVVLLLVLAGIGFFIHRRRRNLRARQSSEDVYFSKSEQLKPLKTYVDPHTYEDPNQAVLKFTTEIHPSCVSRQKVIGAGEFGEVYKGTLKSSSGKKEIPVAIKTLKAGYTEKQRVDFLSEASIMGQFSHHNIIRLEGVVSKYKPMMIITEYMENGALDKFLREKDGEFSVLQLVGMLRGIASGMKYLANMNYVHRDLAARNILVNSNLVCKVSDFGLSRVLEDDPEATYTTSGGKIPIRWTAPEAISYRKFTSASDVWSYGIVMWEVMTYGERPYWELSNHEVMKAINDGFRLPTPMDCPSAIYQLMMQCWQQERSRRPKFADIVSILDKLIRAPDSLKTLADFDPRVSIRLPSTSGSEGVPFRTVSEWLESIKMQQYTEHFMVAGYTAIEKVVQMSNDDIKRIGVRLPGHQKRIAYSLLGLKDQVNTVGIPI

B1: ephrin-A1-Fc: ephrin-A1 dimerized by fusion to the heavy chain of human IgG1 (protein)
chain: DRHTVFWNSSNPKFRNEDYTIHVQLNDYVDIICPHYEDHSVADAAMEQYILYLVEHEEYQLCQPQSKDQVRWQCNRPSAKHGPEKLSEKFQRFTPFTLGKEFKEGHSYYYISKPIHQHEDRCLRLKVTVSGKITHSPQAHDNPQEKRLAADDPEVRVLHSIGHS
modifications: left off: a dimerising Fc or GST
notes: ephrin-A1 dimerized by fusion to the heavy chain of human IgG1
For the molecule B1, in the assay with EphA2, the ERK1/2 activity result is given as “reduced” and the “EphA2 activation, time course” value was “readily occurred in two minutes”. Moreover, in the assay on GFP-PC-3 cells (frozen sections stained with anti-human Fc), the targeting to tumors result is on record as “target to GFP-PC-3 tumors”. In the assay on GFP-PC-3 cells (i.p.), the “tumor growth after three weeks of treatment” value is “lack of effects after three weeks of treatment”. Moreover, in the assay on GFP-PC-3 cells (i.p., vs human IgG), the s.c. tumor growth entry was “inhibited s.c. tumor growth”. Moreover, the “effect of ligand clustering on inhibition of cell adhesion to fibronectin” value in assay [1] is listed as “did not increase the inhibitory effects”. Moreover, the “proliferation of cells expressing EphA1” value in the assay with EphA1 is given as “is inhibited”.
